# Reference: patent EP2173340B1, “METHODS OF ENHANCING COGNITIVE FUNCTION USING NON-PEPTIDIC COMPOUNDS” (Acumen Pharmaceuticals, Inc., priority 2007, dated 2009)
# Target: T1, Aβ1-42 ADDLs (Homo sapiens, UniProt P05067)
# T1 construct: Synthetic Aβ1-42 powder was dissolved in 1,1,1,3,3,3 hexafluorisopropanol (HFIP)
# Experiment: Alternating Lever Cyclic Ratio (ALCR) rat model
# Assay type: in vivo
# Method: Preparations of Aβ1-42 ADDLs and a potential therapeutic compounds under the Alternating Lever Cyclic Ratio (ALCR) rat model of AD were tested. This highly sensitive model has been able to detect cognitive deficits due to direct injection of cell-derived Aβ oligomers into rat brain. In this study, a direct injection of ADDLs made from synthetic Aβ1-42 and a putative therapeutic compound under the ALCR procedure were tested.
# The ALCR test has proven to be much more sensitive than previously published methods for measuring drug effects on cognitive function. In this task, rats must learn a complex sequence of lever-pressing requirements in order to earn food reinforcement in a two-lever experimental chamber. Subjects must alternate between two levers by switching to the other lever after pressing the first lever enough to get food reward. The exact number of presses required for each food reward changes, first increasing from 2 responses per food pellet up to 56 presses per food pellet, then decreasing back to 2 responses per pellet. Intermediate values were based on the quadratic function, x^2 - x. One cycle was an entire ascending and descending sequence of these lever press requirements (e.g., 2, 6, 12, 20, 30, 42, 56, 56, 42, 30, 20, 12, 6, and 2 presses per food reward). Six such full cycles were presented during each daily session.
# Synthetic Aβ1-42 powder was dissolved in 1,1,1,3,3,3 hexafluorisopropanol (HFIP) to afford a solution of Aβ1-42 in HFIP of about 1 mM and allowed to incubate at ambient temperature for about 1 h. The resulting solution was chilled on ice for about 5-10 min, then aliquoted into eppendorf tubes to provide about 50 µl of solution per tube. The tubes were then placed in a chemical fume hood and allowed to stand overnight to allow the HFIP to evaporate under a slow stream of nitrogen. To removed final traces of HFIP, the tubes were subjected to two SpeedVac cycles of 15 min at room temperature and about 15 to 25 in Hg of vacuum. The resulting films of monomerized Aβ1-42 peptide were stored over desiccant at -80 °C until used.
# A tube of monomerized Aβ1-42 peptide was warmed to room temperature and the Aβ1-42 peptide was dissolved in anhydrous DMSO to afford a peptide stock DMSO solution containing about 10 µM to about 100 µM Aβ1-42 peptide in DMSO.
# 2 µl of a 20 mM stock solution of test compound in anhydrous DMSO is added to 998 µl of neural basal media (phenol red free, Gibco 12348-017) to give a compound neural basal media solution containing 40 µM of test compound in neural basal media.
# For the Aβ1-42 peptide only treatment, peptide stock DMSO solution is added to 37 °C neural basal to obtain the requisite Aβ1-42 peptide monomer concentration, provided that the maximum concentration of DMSO is 1% or less, and the tube is vortexed for 30 to 60 seconds, spun down briefly in a microfuge and incubated at 37 °C for 15 min prior to the start of injections.
# For the Aβ1-42 peptide plus test compound treatment, peptide stock DMSO solution is added to 37 °C compound neural basal media solution to obtain the requisite Aβ1-42 peptide monomer concentration, provided that the maximum concentration of DMSO is 1% or less, and the tube is vortexed for 30 to 36 seconds, spun down briefly in a microfuge and incubated at 37 °C for 15 min prior to the start of injections.
# For control injections, compound neural basal media solution is incubated at 37 °C for 15 min prior to the start of injections.
# Rats: Rats were trained under ALCR until their error rates were stable. Once the rats were placed upon the final ALCR procedure, training sessions were conducted 7 days each week until the end of the study.
# Surgery: All rats received a single 28 ga cannula, which was permanently affixed to the skull, and aimed at the lateral ventricle. Half the rats received cannula in the right ventricle and half received cannula in the left ventricle. Rats were allowed 5 days to recover from surgery before training resumed. […]
# [1] = injectate given alone, 20 µl via cannula aimed at lateral ventricle, tested about 3 hours following injection, base line error rate equalized to 1.00
# T1 sequence (P05067 672-713 limits assumed): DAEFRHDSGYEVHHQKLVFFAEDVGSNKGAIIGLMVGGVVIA
substance,measurement,setting,value
"Aβ1-42 ADDLs: ADDLs made from synthetic Aβ1-42; soluble, oligomeric, globular, non-fibrillar, neurotoxic Aβ1-42 peptides",Approach Errors Mean,[1],1.02
same,Perseveration Errors Mean,[1],1.33
same,Perseveration Error rate,"versus baseline error rates, ADDLs alone, result in words",significantly increased
